# Laboratory results published in IntAct's records for PubMed 19277847.
# B1: Junctophilin-2 (Mus musculus), Q9ET78 (parent)
# chain: MSGGRFDFDDGGAYCGGWEGGKAHGHGLCTGPKGQGEYSGSWNFGFEVAGVYTWPSGNTFEGYWSQGKRHGLGIETKGRWLYKGEWTHGFKGRYGIRQSTNSGAKYEGTWNNGLQDGYGTETYADGGTYQGQFTNGMRHGYGVRQSVPYGMAVVVRSPLRTSLSSLRSEHSNGTVAPDSPAADGPMLPSPPVPRGGFALTLLATAEAARPQGLFTRGTLLGRLRRSESRTSLGSQRSRLSFLKSELSSGASDAASTGSLAEGAEGPDDAAAPFDADIDATTTETYMGEWKNDKRSGFGVSERSSGLRYEGEWLDNLRHGYGRTTLPDGHREEGKYRHNVLVKGTKRRVLPLKSSKVRQKVEHGVEGAQRAAAIARQKAEIAASRTSHAKAKAEAAEQAALAANQESNIARTLAKELAPDFYQPGPEYQKRRLLQEILENSESLLEPPERGLGTGLPERPRESPQLHERETPQPEGGPPSPAGTPPQPKRPRPGASKDGLLSPGSWNGEPGGEGSRPATPSDGAGRRSPARPASEHMAIEALQPPPAPSQEPEVAMYRGYHSYAVRTGPPEPPPLEDEQEPEPEPEPEVRRSDSAPPSPVSATVPEEEPPAPRSPVPAKQATLEPKPIVPKAEPKAKARKTEARGLSKAGAKKKGRKEVAQAKEAEVEVEEVPNTVLICMVILLNIGLAILFVHLLT
# partner: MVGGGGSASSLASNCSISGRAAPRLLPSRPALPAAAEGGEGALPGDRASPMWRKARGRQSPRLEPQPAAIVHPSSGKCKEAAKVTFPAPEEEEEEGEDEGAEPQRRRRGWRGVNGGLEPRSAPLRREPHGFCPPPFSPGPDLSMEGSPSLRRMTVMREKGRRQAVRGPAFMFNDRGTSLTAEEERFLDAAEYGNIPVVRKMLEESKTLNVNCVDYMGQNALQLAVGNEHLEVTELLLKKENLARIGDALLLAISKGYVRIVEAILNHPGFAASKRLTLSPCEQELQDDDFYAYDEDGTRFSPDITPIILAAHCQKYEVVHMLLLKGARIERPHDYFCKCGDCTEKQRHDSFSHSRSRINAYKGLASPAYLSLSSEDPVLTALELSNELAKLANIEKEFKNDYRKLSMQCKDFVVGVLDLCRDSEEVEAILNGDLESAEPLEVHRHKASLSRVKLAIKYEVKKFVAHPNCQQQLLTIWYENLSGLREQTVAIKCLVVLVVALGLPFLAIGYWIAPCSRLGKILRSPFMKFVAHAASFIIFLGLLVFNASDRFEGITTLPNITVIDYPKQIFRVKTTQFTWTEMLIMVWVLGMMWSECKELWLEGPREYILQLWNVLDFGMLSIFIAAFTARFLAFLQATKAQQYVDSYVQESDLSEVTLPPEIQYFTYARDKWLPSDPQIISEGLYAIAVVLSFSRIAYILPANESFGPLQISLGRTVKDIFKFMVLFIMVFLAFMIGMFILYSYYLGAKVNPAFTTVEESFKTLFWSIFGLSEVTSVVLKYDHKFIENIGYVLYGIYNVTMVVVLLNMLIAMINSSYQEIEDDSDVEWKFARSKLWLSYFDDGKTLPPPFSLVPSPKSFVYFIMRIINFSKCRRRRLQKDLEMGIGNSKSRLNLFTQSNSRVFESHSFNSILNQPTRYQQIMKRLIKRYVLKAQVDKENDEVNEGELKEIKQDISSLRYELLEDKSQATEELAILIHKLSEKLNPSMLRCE
# Variants of: B1
# Settings: with TRPC3, G1U2U3
row,Variant,effect of a mutation on the interaction
1,R222A,decreasing interaction
2,R216A,decreasing interaction
3,E227A,decreasing interaction
